# Measured values from the DeepSol protein solubility set.
# Assay: soluble on expression in E. coli; label from the status in PepcDB or PDB records
row,Sequence,soluble on expression in E. coli
1,SLFITDKRVKESATALNPSMFQGLYLQDQMLKDPTYLPIYGSSELSRLDEFHPSNYFQVNNEGFTPYLVGKGGSQSLIHSLNFAAHMDQLKGKKIVFIVSPQWFIKRGSDEQHFAPNYSALQGLDLAFNDQIDPEIKKKMMKRMLRFKAVQNDAILSELYKAMVNGQTWKVNALKPAAKVYYSMLEKKDLYYSTTESSGPKRYISQSVKDKSWSELNKLADQSGKRHSGSNDFHIDNPVYKKLKPKVPKLKGKNKGRSYAVSPEYGDFEMMLDILKDAGAEPMFVTIPVNGKWYDYTGFPKKGRTDYYKKVNKQIRAKGFQVADFSGHEYDPYFMKDTIHIGWKGWVYVDKAIDEFYKTGKVTSS,soluble
2,SLKVNNLIAGALNLNSKDYKKSGKKVSFDKNNLFSSIFQAESVKEDKHFILLENGEFNLDLIKSMLDGINETGERLLSEPSRQNVIFYKKVISEFISIIISSSVCLKEQKGGNLGDPKRPKYRIIKIINDKLDKLAYSVLQNQMTQIKLLDSIEEIQGLLVNLLM,soluble
3,SLLGGPGIELFRRLVEEYEREHDVPMADIAAALAVQCRGGEAFLMAPDPPLSRRNRDQRRDRPQRPKRRPDLTTYRVAVGKRHKIGPGAIVGAIANEGGLHRSDFGQIRIGPDFSLVELPAKLPRATLKKLAQTRISGVLIDLRPYRPPDAARRHNGGKPRRKHVG,not soluble
4,SLLPSFFPCCRCKWSATGCGTCSTQDCEGICKMTSGEQAKTPLQAPILLTNVKPVGFGKGASQSSTDILIGGDGKIAAVGSALQAPADTQRIDAKGAFISPGWVDLHVHIWHGGTDISIRPSECGAERGVTTLVDAGSAGEANFHGFREYIIEPSRERIKAFLNLGSIGLVACNRVPELRDIKDIDLDRILECYAENSEHIVGLKVRASHVITGSWGVTPVKLGKKIAKILKVPMMVHVGEPPALYDEVLEILGPGDVVTHCFNGKSGSSIMEDEDLFNLAERCAGEGIRLDIGHGGASFSFKVAEAAIARGLLPFSISTDLHGHSMNFPVWDLATTMSKLLSVDMPFENVVEAVTRNPASVIRLDMENRLDVGQRADFTVFDLVDADLEATDSNGDVSRLKRLFEPRYAVIGAEAIAASRYIPRARKLVRHSHGYSWR,soluble
5,SLPIFEARVKVGISSSWVTSRKVSWRDAIAQIESDRIVVKYLKMGEVVGEDSFPFSALIDLGVRIPDELKLNPEKDHFGIKFYIPGRGELLVIFTIEENLLIYDEKKFSEFVHKVFEVLINGKTVMLQLARIIGGAVNMESKWEEGWLRVIKVKSARTQKTERSIVVIIKDKRPVSIFSDLEDIEIEEVDMNGKRVRAWKIRHFHIDQSVTSYLYIPDKQTQLYVLRYLLKYNPAIMEFIMKVSDDFPTLKSEFQEIMEKEIKELEALDEMEKQILVALYSGINPLELHQFLGVSEKEIEEIYDRMIDKGLLKIVMIRKIVDLTNEGRKIVNKLLKYGLVSM,soluble
6,SLPWTVRTETCRMPFRIDPKKPFGDEIRRAGLELIDDAVTILRDQPSGSHEAVHDARKRFKRLRALYRLIRKVAPDFAREENTRFRDIARSLAFARDATALVETAEYLEAFAASDTQGEALRSVTVMLRERRDDALDHEAGLDEAIAAAIAGCEKGRERLEDLSLPDDLNKTARLVRTGWAKQRVKARKALSCCREQADVEHFHELRKAGQTYWMHLGLMRRLWPSAMRAKRADTKRLVDILGHEHDLSVLTAVADREPDRFGNGERLALLLAAIIERQQALRAEGLVLADEVFSESARTESRIVGLLWRQAAK,not soluble
7,SLQCLRFAGAATHPAQAPCMPGPACEPVETFLKTCQAPGSEPTGAASLRAKYLPPSTASIRVSAGLLRAALEDSHSGFHLCSATLRWLLAENAAVDVVRAQTLSSIQGIAPDGTDVNLTVHEVAVTDLSPAGPIQAVEIQVESSSLANMCRAHHAIIRRIQTMVTEQAALGSSPPDLRMQYLQQIHANHQELLREVQALRDQLCTEDELSSCSTAQKLLHIYKQLRNPSLVLL,not soluble
8,SLQPEAPKPPQIGMANPASVYCQQKGGTLIPVQTAQGVSNNCKLPGGETIDEWALWRLDHPAGEK,soluble
9,SLQVNTPQTEETANQAKRHVADYTMDGISATALDERGVTKYRFTGVHMNHYEDDLTYDVTFPALRIYAPDRPQVTARADLGKMNGEGSIIDLYDNAKVVRAQGPDLRQDPLMTADSTYFQVLLNDDVVRTDKPVELHRGPSVMNANGLVFNNVTRQVQLLGNVRGRIEGLGAPKQ,soluble
